{
  "source": "paper PMC8351524",
  "about": "(2021)",
  "binders": {"B1": {"name": "CD36 (protein)", "chain": "GCDRNCGLIAGAVIGAVLAVFGGILMPVGDLLIQKTIKKQVVLEEGTIAFKNWVKTGTEVYRQFWIFDVQNPQEVMMNSSNIQVKQRGPYTYRVRFLAKENVTQDAEDNTVSFLQPNGAIFEPSLSVGTEADNFTVLNLAVAAASHIYQNQFVQMILNSLINKSKSSMFQVRTLRELLWGYRDPFLSLVPYPVTTTVGLFYPYNNTADGVYKVFNGKDNISKVAIIDTYKGKRNLSYWESHCDMINGTDAASFPPFVEKSQVLQFFSSDICRSIYAVFESDVNLKGIPVYRFVLPSKAFASPVENPDNYCFCTEKIISKNCTSYGVLDISKCKEGRPVYISLPHFLYASPDVSEPIDGLNPNEEEHRTYLDIEPITGFTLQFAKRLQVNLLVKPSEKIQVLKNLKRNYIVPILWLNETGTIGDEKANMFRSQVTGKINLLGLIEMILLSVGVVMFVAFMISYCACRSKTIK"}},
  "target": "T1, APOC2 (Homo sapiens, UniProt P02655)",
  "T1 chain": "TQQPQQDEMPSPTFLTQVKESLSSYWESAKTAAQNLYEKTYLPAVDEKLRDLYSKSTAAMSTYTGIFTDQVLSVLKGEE",
  "experiment": "biolayer interferometry",
  "data": [
    {"binder": "B1", "values": [
      {"measurement": "Kd", "result": 128, "unit": "nM"}
    ]}
  ]
}
